The text below walks through data of article PMC11198818, “Positive charges promote the recognition of proteins by the chaperone SlyD from Escherichia coli” (PLOS ONE, 2024).

Positions count from the first letter of the chain named.

Test in all cases: ITC; VP-ITC (MicroCal), 30°C, 10 mM potassium phosphate buffer pH 7.6 or 7.8; SlyD or its variant 30 uM in the calorimetric cell, HiPIP precursor (RR-HiPIP) injected: 100 uM, 2x 22 injections of 10 uL (Fig 4); 200 uM, 23 injections of 10 uL (Fig 3)
What all share (details): both partners purified
For orientation: Isothermal titration calorimetry measures the heat released or taken up as one component is titrated into another.

Test [1] has as its target T1, SlyD D101A, C-terminally hexahistidine-tagged (E. coli, UniProt P0A9K9 1-196, D101A).
T1 construct: FKBP-type peptidyl-prolyl cis-trans isomerase SlyD, E. coli; the tag is fused to the C-terminal domain; not shown: His6, C-terminal, kept
T1 sequence: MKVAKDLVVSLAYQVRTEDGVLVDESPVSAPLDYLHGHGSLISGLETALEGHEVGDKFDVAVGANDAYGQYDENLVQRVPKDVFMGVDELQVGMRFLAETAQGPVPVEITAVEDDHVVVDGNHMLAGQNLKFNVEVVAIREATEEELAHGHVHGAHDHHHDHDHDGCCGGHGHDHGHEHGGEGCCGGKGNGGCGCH

Test [2] concerns the target T2, SlyD D115A, C-terminally hexahistidine-tagged (E. coli, UniProt P0A9K9 1-196, D115A).
T2 construct: FKBP-type peptidyl-prolyl cis-trans isomerase SlyD, E. coli; the tag is fused to the C-terminal domain; not shown: His6, C-terminal, kept
T2 sequence: T1 sequence with A101D, D115A

Test [3] deals with T3, SlyD E108A, C-terminally hexahistidine-tagged (E. coli, UniProt P0A9K9 1-196, E108A).
T3 construct: FKBP-type peptidyl-prolyl cis-trans isomerase SlyD, E. coli; the tag is fused to the C-terminal domain; not shown: His6, C-terminal, kept
T3 sequence: T1 sequence with A101D, E108A

Test [4] addresses T4, SlyD F84N, C-terminally hexahistidine-tagged (E. coli, UniProt P0A9K9 1-196, F84N).
T4 construct: FKBP-type peptidyl-prolyl cis-trans isomerase SlyD, E. coli; the tag is fused to the C-terminal domain; not shown: His6, C-terminal, kept
T4 sequence: T1 sequence with F84N, A101D

Test [5] deals with T5, SlyD Y68S, C-terminally hexahistidine-tagged (E. coli, UniProt P0A9K9 1-196, Y68S).
T5 construct: FKBP-type peptidyl-prolyl cis-trans isomerase SlyD, E. coli; the tag is fused to the C-terminal domain; not shown: His6, C-terminal, kept
T5 sequence: T1 sequence with Y68S, A101D

The target in test [6] is T6, SlyD E89A, C-terminally hexahistidine-tagged (E. coli, UniProt P0A9K9 1-196, E89A).
T6 construct: FKBP-type peptidyl-prolyl cis-trans isomerase SlyD, E. coli; the tag is fused to the C-terminal domain; not shown: His6, C-terminal, kept
T6 sequence: T1 sequence with E89A, A101D

Test [7] has as its target T7, SlyD F84A, C-terminally hexahistidine-tagged (E. coli, UniProt P0A9K9 1-196, F84A).
T7 construct: FKBP-type peptidyl-prolyl cis-trans isomerase SlyD, E. coli; the tag is fused to the C-terminal domain; not shown: His6, C-terminal, kept
T7 sequence: T1 sequence with F84A, A101D

B1: HiPIP precursor (RR-HiPIP) from Allochromatium vinosum (natural protein)
chain: MSDKPISKSRRDAVKVMLGTAAAIPMINLVGFGTARASAPANAVAADDATAIALKYNQDATKSERVAAARPGLPPEEQHCANCQFMQADAAGATDEWKGCQLFPGKLINVNGWCASWTLKAG
modifications: HiPIP precursor; fully folded, [4Fe-4S] cluster presumed; signal peptide retained
By stoichiometry N is commonly meant the number of molecules, sites or subunits per partner or assembly. As a reminder, the Kd is the concentration at which binding is half-saturated. A high value points to lower affinity. Regarding B1, the “stoichiometry N” value in test [1] came to 0.604 ± 0.012; in test [2] it was 0.541 ± 0.026; in test [3] it was 0.569 ± 0.015; in test [4], 0.532 ± 0.004; in test [5], 0.462 ± 0.003; in test [6], 0.404 ± 0.004. Further, the “stoichiometry N” value in test [7] was 0.766 ± 0.011. Besides, the dissociation constant Kd in test [2] turned out to be 270 ± 20 nM; in test [4], 6620 ± 200 nM; in test [6] it was 380 ± 40 nM.
